The supplement of paper PMC7125110
± gives the standard error. For some of these results: This sample holds only a part of the variants without activity.

B1: glmS ribozyme (parent)
chain: AUAAAAGCGCCAGAACUACAGAAAUGUAGUUGACGAGGAGGAGGUUUAUCGAAUUUUCGGCGGAUGCCUCCAAA

Key:
Conditions in all cases: with glucosamine-6-phosphate
glucosamine-6-phosphate [1] = variants of: B1; assay: self-cleavage kobs at 40 uM GlcN6P; higher = faster cleavage; RNA array
Method in brief: (§1)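 Barcoded ribozyme variants were transcribed in situ on sequenced MiSeq chips by E. coli RNA polymerase. At 37 °C, a hybridised Cy3 probe tracked them while glucosamine-6-phosphate (40 μM to 10 mM) in HEPES/KCl/Mg(OAc)2 buffer flowed in and tiles were imaged over ~14 h. Per-tile medians of signals normalised to baseline and to non-cleaving reference variants were fit to one- or two-exponential decays, giving kobs. kcat and KM came from weighted Michaelis–Menten fits across concentrations.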

glucosamine-6-phosphate [2] = variants of: B1; assay: self-cleavage kobs at 10000 uM GlcN6P; higher = faster cleavage; RNA array
Method in brief: as §1

glucosamine-6-phosphate [3] = variants of: B1; assay: self-cleavage kobs at 2500 uM GlcN6P; higher = faster cleavage; RNA array
Method in brief: as §1

glucosamine-6-phosphate [4] = variants of: B1; assay: KM; higher = weaker cofactor use; RNA array
Method in brief: as §1

glucosamine-6-phosphate [5] = variants of: B1; assay: self-cleavage kobs at 160 uM GlcN6P; higher = faster cleavage; RNA array
Method in brief: as §1

glucosamine-6-phosphate [6] = variants of: B1; assay: self-cleavage kobs at 640 uM GlcN6P; higher = faster cleavage; RNA array
Method in brief: as §1

| Variant | self-cleavage kobs at 40 uM GlcN6P (glucosamine-6-phosphate [1]) | self-cleavage kobs at 10000 uM GlcN6P (glucosamine-6-phosphate [2]) | self-cleavage kobs at 2500 uM GlcN6P (glucosamine-6-phosphate [3]) | KM (glucosamine-6-phosphate [4]) | self-cleavage kobs at 160 uM GlcN6P (glucosamine-6-phosphate [5]) | self-cleavage kobs at 640 uM GlcN6P (glucosamine-6-phosphate [6]) |
| --- | --- | --- | --- | --- | --- | --- |
| A6G C16U U30A G43U G62U C70A | < 1e-05 s⁻¹ | < 1e-05 s⁻¹ | – | – | – | – |
| A6G A12U U65G | < 1e-05 s⁻¹ | 0.000137 ± 4.1e-05 s⁻¹ | – | – | – | – |
| A6G A36C G51A | < 1e-05 s⁻¹ | < 1e-05 s⁻¹ | < 1e-05 s⁻¹ | – | – | – |
| G40A G44C | – | – | – | 2.68 ± 1.1 mM | – | – |
| A6C A52U C67G | < 1e-05 s⁻¹ | – | – | – | – | – |
| A6G A53C U56G | < 1e-05 s⁻¹ | – | – | – | – | – |
| A6G A53C C58A C61A | < 1e-05 s⁻¹ | < 1e-05 s⁻¹ | – | – | – | – |
| U2C A33G | < 1e-05 s⁻¹ | < 1e-05 s⁻¹ | < 1e-05 s⁻¹ | – | < 1e-05 s⁻¹ | – |
| A6G C50G | 0.000151 ± 3.1e-05 s⁻¹ | 3.84e-05 ± 1.3e-05 s⁻¹ | 0.000106 ± 3.4e-05 s⁻¹ | – | 9.76e-05 ± 3.1e-05 s⁻¹ | 0.000503 ± 0.00012 s⁻¹ |
| A6G A14G G32C G44A A53C U65G C68U | < 1e-05 s⁻¹ | – | < 1e-05 s⁻¹ | – | – | – |
| A6G G9A G44A C71A | < 1e-05 s⁻¹ | < 1e-05 s⁻¹ | < 1e-05 s⁻¹ | – | – | – |
| A6C G35U G38A G43U U54G C67U | < 1e-05 s⁻¹ | < 1e-05 s⁻¹ | < 1e-05 s⁻¹ | – | – | – |
| A6G A33U C58G C67U C71A | 5.47e-05 ± 2.5e-05 s⁻¹ | – | 0.000109 ± 4.9e-05 s⁻¹ | – | 9.68e-05 ± 2.9e-05 s⁻¹ | 0.000593 ± 0.00019 s⁻¹ |
| A6C G13A A52C | < 1e-05 s⁻¹ | < 1e-05 s⁻¹ | < 1e-05 s⁻¹ | – | – | – |
| A1U U2G A3G A5U A6C G7C C8A G9U C10A C11A | < 1e-05 s⁻¹ | < 1e-05 s⁻¹ | < 1e-05 s⁻¹ | – | < 1e-05 s⁻¹ | < 1e-05 s⁻¹ |
| A6C C8G | < 1e-05 s⁻¹ | < 1e-05 s⁻¹ | < 1e-05 s⁻¹ | – | – | < 1e-05 s⁻¹ |
| A6C G9C C11U C34G G38A U55C G59A C67U | < 1e-05 s⁻¹ | < 1e-05 s⁻¹ | – | – | – | – |
| A6C G13U A53U | < 1e-05 s⁻¹ | < 1e-05 s⁻¹ | – | – | – | – |
| A6C C11G G29U C34G G51C | < 1e-05 s⁻¹ | – | – | – | – | – |
| A6G C10G U31G U55A | < 1e-05 s⁻¹ | – | – | – | – | – |
| A6G C34A | < 1e-05 s⁻¹ | < 1e-05 s⁻¹ | < 1e-05 s⁻¹ | – | < 1e-05 s⁻¹ | < 1e-05 s⁻¹ |
| A42C U56G | – | – | – | 4.13 ± 0.12 mM | – | – |
| A6G C10U A39G C58A | < 1e-05 s⁻¹ | < 1e-05 s⁻¹ | < 1e-05 s⁻¹ | – | – | – |

| Variant | self-cleavage kobs at 40 uM GlcN6P (glucosamine-6-phosphate [1]) | self-cleavage kobs at 10000 uM GlcN6P (glucosamine-6-phosphate [2]) | self-cleavage kobs at 2500 uM GlcN6P (glucosamine-6-phosphate [3]) | KM (glucosamine-6-phosphate [4]) | self-cleavage kobs at 160 uM GlcN6P (glucosamine-6-phosphate [5]) | self-cleavage kobs at 640 uM GlcN6P (glucosamine-6-phosphate [6]) |
| --- | --- | --- | --- | --- | --- | --- |
| A6C G7C | < 1e-05 s⁻¹ | < 1e-05 s⁻¹ | < 1e-05 s⁻¹ | – | < 1e-05 s⁻¹ | < 1e-05 s⁻¹ |
| A6G A36G | < 1e-05 s⁻¹ | < 1e-05 s⁻¹ | < 1e-05 s⁻¹ | – | – | < 1e-05 s⁻¹ |
| A6G C11U C16A A64G | < 1e-05 s⁻¹ | < 1e-05 s⁻¹ | – | – | < 1e-05 s⁻¹ | < 1e-05 s⁻¹ |
| A6C G35U | < 1e-05 s⁻¹ | < 1e-05 s⁻¹ | < 1e-05 s⁻¹ | – | < 1e-05 s⁻¹ | – |
| A6G A15U C16U A39G C70U | < 1e-05 s⁻¹ | – | – | – | – | < 1e-05 s⁻¹ |
| A6C C61G | < 1e-05 s⁻¹ | < 1e-05 s⁻¹ | – | – | – | < 1e-05 s⁻¹ |
| A6G C16G | < 1e-05 s⁻¹ | 3.38e-05 ± 8.1e-06 s⁻¹ | – | – | < 1e-05 s⁻¹ | < 1e-05 s⁻¹ |
| A6G C10U A39U | < 1e-05 s⁻¹ | < 1e-05 s⁻¹ | < 1e-05 s⁻¹ | – | < 1e-05 s⁻¹ | – |
| A6G C61U | < 1e-05 s⁻¹ | < 1e-05 s⁻¹ | < 1e-05 s⁻¹ | – | < 1e-05 s⁻¹ | < 1e-05 s⁻¹ |
| A6G C61A | < 1e-05 s⁻¹ | < 1e-05 s⁻¹ | < 1e-05 s⁻¹ | – | – | – |
| A6C G66C C68G | < 1e-05 s⁻¹ | – | – | – | – | – |
| A6G G9A G38A G41A U57A | < 1e-05 s⁻¹ | – | < 1e-05 s⁻¹ | – | < 1e-05 s⁻¹ | < 1e-05 s⁻¹ |
| A6C G29U G32A U45A G60A | < 1e-05 s⁻¹ | – | < 1e-05 s⁻¹ | – | – | – |
| A6C A42U | < 1e-05 s⁻¹ | < 1e-05 s⁻¹ | – | – | < 1e-05 s⁻¹ | < 1e-05 s⁻¹ |
| A6C A42C | < 1e-05 s⁻¹ | < 1e-05 s⁻¹ | – | – | < 1e-05 s⁻¹ | < 1e-05 s⁻¹ |
| A6G G13C | < 1e-05 s⁻¹ | < 1e-05 s⁻¹ | < 1e-05 s⁻¹ | – | < 1e-05 s⁻¹ | < 1e-05 s⁻¹ |
| A6C A64U | < 1e-05 s⁻¹ | < 1e-05 s⁻¹ | – | – | < 1e-05 s⁻¹ | < 1e-05 s⁻¹ |
| A6C C8A A48U A52C | < 1e-05 s⁻¹ | < 1e-05 s⁻¹ | – | – | – | – |
| A6G A14C C34A C68A | < 1e-05 s⁻¹ | – | – | – | – | – |
| A6G C50A C70U | < 1e-05 s⁻¹ | – | – | – | – | – |
| A6C C34A C58A | < 1e-05 s⁻¹ | < 1e-05 s⁻¹ | – | – | – | – |
| A6G C58G C61U | < 1e-05 s⁻¹ | < 1e-05 s⁻¹ | – | – | – | – |
